According to patent US20060173159A1, “Water-soluble thioester and selenoester compounds and methods for making and using the same” (priority 2002, published 2006):
No end group written: not given here. *: point of attachment. thioester = C-terminal thioester, without the water-soluble polymer; Acm = CC(=O)NC*

Assay: Dissolution of deprotected and cleaved crude peptide-thioester in 50% aqueous acetonitrile containing 0.08% TFA
Format: physicochemical
Details: 50% aqueous acetonitrile containing 0.08% trifluoroacetic acid (TFA)

Substance	dissolution of deprotected and cleaved peptide-thioester
GRFN 1852: SEQ ID NO:3 peptide L-thioester, non-polymer modified; comparator (C(Acm)LSQLHSGLFLYQGLLQALEGISPELGPTLDTLQLDVADFATTIWQQMEEL-thioester)	poorly soluble
GRFN 1852-PLP3-Leu: SEQ ID NO:4 peptide, C-terminal L-thioester joined to water-soluble polyamide polymer PLP3-Leu (C(Acm)LSQLHSGLFLYQGLLQALEGISPELGPTLDTLQLDVADFATTIWQQMEEL; not fully specified (C-terminus); also: C-terminal thioester joined to PLP3-Leu polyamide polymer)	completely dissolved
